The source of these data is US20230080224A1 (AGENCY FOR SCIENCE TECHNOLOGY AND RESEARCH, published 2023).

The target in assay [1] is T1, human ALPPL2 (recombinant protein) (human, UniProt P10696 20-503, limits assumed).
T1 construct: biotinylated where captured on streptavidin
Put plainly: screen of rabbit B-cell clones by ELISA and FACS. The text has this:
(§1) Specific clones were screened and identified by ELISA and high throughput flow cytometry (FIG. 3). Rabbit kidney cells were transfected with either truncated (for ELISA screen) or full-length (for FACS screen) ALPI and ALPPL2.
Background: ELISA stands for enzyme-linked immunosorbent assay.

In assay [2] the target is T2, ALPI (screening and SPR/ELISA protein) (UniProt P09923 20-503, limits assumed).
T2 sequence (looked up): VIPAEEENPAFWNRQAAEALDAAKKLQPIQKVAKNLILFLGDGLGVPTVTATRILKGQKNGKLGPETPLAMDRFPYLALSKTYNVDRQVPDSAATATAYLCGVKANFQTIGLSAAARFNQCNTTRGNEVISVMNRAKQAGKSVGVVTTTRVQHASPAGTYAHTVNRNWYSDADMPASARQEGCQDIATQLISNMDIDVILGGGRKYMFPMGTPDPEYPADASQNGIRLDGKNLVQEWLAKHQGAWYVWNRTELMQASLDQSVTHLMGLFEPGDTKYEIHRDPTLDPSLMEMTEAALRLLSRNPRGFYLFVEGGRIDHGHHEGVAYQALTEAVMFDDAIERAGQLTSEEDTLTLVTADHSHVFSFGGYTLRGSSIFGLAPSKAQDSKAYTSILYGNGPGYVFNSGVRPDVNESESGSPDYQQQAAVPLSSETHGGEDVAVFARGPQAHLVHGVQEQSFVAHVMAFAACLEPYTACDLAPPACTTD
The assay can be described thus: screen of rabbit B-cell clones by ELISA and FACS.
Description: as §1

Assay [3] concerns the target T3, human ALPPL2 expressed on cells (human, UniProt P10696 20-503).
T3 construct: whole, on cells; also called placental-like alkaline phosphatase
Put plainly: immunohistochemistry on FFPE ALPPL2+ve cell lines and tumor tissues. As to the method: To enable development of a companion diagnostic, the IHC activity of the antibodies was evaluated (FIG. 5). Antigen retrieval by Proteinase-K digestion, but not heat mediated antigen retrieval, enabled detection. C36, C45 and C130 enabled detection in ALPPL2+ve cell lines (SCH) and formalin fixed paraffin embedded (FFPE) human tumor tissues by IHC. […] This is also indicative the optimal therapeutic window of these antibodies in the clinic.

The target in assay [4] is T4, human ALPPL2 (recombinant protein) (human, UniProt P10696 20-503).
T4 chain: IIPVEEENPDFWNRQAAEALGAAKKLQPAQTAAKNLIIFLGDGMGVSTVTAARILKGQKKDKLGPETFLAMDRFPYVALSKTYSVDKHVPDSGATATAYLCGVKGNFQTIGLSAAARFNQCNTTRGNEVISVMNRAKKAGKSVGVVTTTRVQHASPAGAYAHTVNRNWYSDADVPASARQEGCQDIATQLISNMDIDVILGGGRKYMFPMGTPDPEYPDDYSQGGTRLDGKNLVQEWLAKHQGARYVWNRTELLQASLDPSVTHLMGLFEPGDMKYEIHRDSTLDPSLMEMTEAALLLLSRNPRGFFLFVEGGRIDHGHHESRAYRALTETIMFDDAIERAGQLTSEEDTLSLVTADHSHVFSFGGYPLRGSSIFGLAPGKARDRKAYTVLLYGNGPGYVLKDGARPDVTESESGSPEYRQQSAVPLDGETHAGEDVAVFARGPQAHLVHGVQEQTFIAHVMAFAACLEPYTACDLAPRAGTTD
Put plainly: BLI; single concentration. On the technique in general: BLI is a label-free optical method that tracks binding on a fibre tip over time.

The target in assay [5] is T5, human ALPP (recombinant protein) (human, UniProt P05187 23-506).
T5 chain: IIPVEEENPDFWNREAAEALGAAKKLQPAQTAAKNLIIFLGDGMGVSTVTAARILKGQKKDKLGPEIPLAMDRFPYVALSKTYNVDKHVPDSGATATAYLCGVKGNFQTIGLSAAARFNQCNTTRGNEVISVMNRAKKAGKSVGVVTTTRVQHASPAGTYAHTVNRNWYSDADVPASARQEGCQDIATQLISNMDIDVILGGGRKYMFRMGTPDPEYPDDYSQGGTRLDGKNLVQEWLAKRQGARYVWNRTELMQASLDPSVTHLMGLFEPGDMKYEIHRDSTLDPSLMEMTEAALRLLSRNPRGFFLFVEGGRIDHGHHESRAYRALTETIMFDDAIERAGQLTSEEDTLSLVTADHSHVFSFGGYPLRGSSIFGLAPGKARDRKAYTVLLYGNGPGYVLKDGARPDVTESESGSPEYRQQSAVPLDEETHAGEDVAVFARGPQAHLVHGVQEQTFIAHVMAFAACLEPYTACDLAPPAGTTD
The assay can be described thus: SPR. In general terms: Surface plasmon resonance follows binding to a sensor surface in real time, without labels.

Assay [6] addresses T4, human ALPPL2 (recombinant protein). The assay can be described thus: SPR.
The target of assay [7] is human ALPP (recombinant protein) (human, UniProt P05187 23-506, limits assumed). The assay can be described thus: SPR, Biacore T200, ligand captured by streptavidin on CM5 chip, antibody as analyte. As to the method: (§2) Select clones (C4, C15, C131, C12, C18, C36 and C53) were humanized by grafting the CDRs to a human IgG1 framework. […] Surface plasmon resonance was studied using Biacore T200. Ligands (e.g. ALPPL2 or ALPP) were immobilized on biosensors CM5 chips captured with the streptavidin. Ligands-loaded sensors were then incubated with different concentrations of analyte (recombinant expressed humanized antibody clones) to measure affinity.

Assay [8] deals with T1, human ALPPL2 (recombinant protein). The description is as above. As to the method:
as §2

For assay [9], the target named is T6, human ALPI expressed on cells (human, UniProt P09923 20-503).
T6 construct: whole, on cells
T6 sequence (looked up): T2 sequence (looked up)
The assay can be described thus: FACS on transiently transfected 293T cells (FIG. 13A).

For assay [10], the target named is T7, human ALPL expressed on cells (human, UniProt P05186 18-501).
T7 construct: whole, on cells
T7 sequence (looked up): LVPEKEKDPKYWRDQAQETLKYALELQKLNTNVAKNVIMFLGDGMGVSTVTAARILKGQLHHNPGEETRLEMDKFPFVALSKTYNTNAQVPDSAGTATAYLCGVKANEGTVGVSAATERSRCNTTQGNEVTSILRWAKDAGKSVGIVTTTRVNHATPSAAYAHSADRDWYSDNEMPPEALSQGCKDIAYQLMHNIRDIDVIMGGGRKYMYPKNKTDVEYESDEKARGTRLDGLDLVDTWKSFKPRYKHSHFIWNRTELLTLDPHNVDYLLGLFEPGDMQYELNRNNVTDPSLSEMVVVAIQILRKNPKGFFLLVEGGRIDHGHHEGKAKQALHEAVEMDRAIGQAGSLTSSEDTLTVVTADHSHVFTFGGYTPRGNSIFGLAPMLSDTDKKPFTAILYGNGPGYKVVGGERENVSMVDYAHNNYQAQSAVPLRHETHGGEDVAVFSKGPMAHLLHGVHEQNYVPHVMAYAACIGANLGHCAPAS
The description is as above.

The target of assay [11] is T3, human ALPPL2 expressed on cells. Put plainly: FACS (FIG. 13).
Assay [12] concerns the target T8, human ALPP expressed on cells (human, UniProt P05187 23-506).
T8 construct: whole, on cells
Put plainly: FACS (FIG. 13).

The term Kd denotes the free concentration of one partner at which half of the binding sites on the other are occupied at equilibrium, for simple one-to-one binding.

B1: AB1C45 (antibody, V domains shown)
VH: QERLEESGGGLVQPEGSLTLTCTASGFSFSSSYYMCWVRQAPGKGMEWIGCIYTGNDDTWYASWAKGRFTVSKTSSTTVTLQMTSLTATDTATYFCARGLSPIDLWGPGTLVTVSS
VL: IVMTQTPSSKSVPVGDTVTINCQASESIYNNNNLGWYQQKPGQPPKLLIYWASTLASGVPSRFKGSGSGTQFTLTISDVECDDAATYYCAGYKSRTTDGSAFGGGTEVVVK
notes: Rabbit antibody cloned from a single B cell
Consider B1, for which the results for the binding result in assay [1], in [2] and in [3] were “binds”, “no binding” and “binds”, respectively.

B2: AB1C36 (antibody, V domains shown)
VH: QSLEESGGDLVKPGASLTLTCTASGFSFSSGYNICWVRQAPGKGLELIACIYTSSSGSTYYASWAKGRFTISKTSSTTVTLQMTSLTVADTATYFCARGEAYYAYGYVGYAYYHGAFDPWGPGTLVTVSS
VL: DIVMTQTPASVEAGVGGTVTIKCQASHSISKYFSWYQQKIGQPPKLLIYEASTLASGVPSRFKGSGSGTQFTLTISDLECADAATYYCQSYYYGTSSSYAFGGGTEVVVK
notes: as for B1
For the molecule B2, the binding result is “binds” in assay [1], “no binding” in assay [2] and “binds” in assay [3]. The Kd in [4] amounted to 1.6 nM.

B3: AB2C130 (antibody, V domains shown)
VH: QSLEESGGDLVKPGASLTLTCTASGFSFSSGYWICWVRQAPGKGLEWIACIYTGVGATYYASWAKGRFTISKTSSTTVTLQMTSLTAADTATYFCARDFGGSSGFYFNLWGPGTLVTVSS
VL: FELTQTPSSVEAAVGATVTIKCQASQSISNALAWYQQKPGQPPKLLIYSASTLESGVPSRFKGSGSGTEFTLTISDLECADAATYYCQNYYGSTSSSYGVAFGGGTEVVVK
notes: as for B1
B3: the binding result is reported as “binds” in assay [1], “no binding” in assay [2] and “binds” in assay [3]. Moreover, the Kd in [4] was found to be 0.001 nM.

B4: humanized C12 (antibody, human IgG1, V domains shown)
VH: EVQLVESGGGLVQPGGSLRLSCAASGFSFSSSYWISWVRQAPGKGLEWIACIAIGSSGTTYYASWAKGRFTISRDNSKNTLYLQMNSLRAEDTAVYYCARSGDGYTYVELWGQGTLVTVSS
VL: DIQMTQSPSSLSASVGDRVTITCQASQSISSYLAWYQQKPGKVPKLLIYRASTLASGVPSRFSGSGSGTDFTLTISSLQPEDVATYYCQNYYDIDDSDNTFGQGTKVEIK
notes: CDRs grafted to a human IgG1 framework; recombinant; also called hC12
Regarding B4, the Kd was 0.235 nM in [5] and 0.08 nM in assay [6]. Moreover, the binding result in assay [7] and in [8] was “binds” in each case.

B5: humanized C4 (antibody, V domains shown)
VH: EVQLVESGGGLVQPGGSLRLSCAASGFTISNNYWICWVRQAPGKGLEWIGCIATGDGSTYYASWAKGRFTISRDNSKNTLYLQMNSLRAEDTAVYYCARGAAGSSWTTYFDFWGQGTLVTVSS
VL: DIQMTQSPSSLSASVGDRVTITCQAGQNIDNYLSWYQQKPGKVPKLLIYRASTLASGVPSRFSGSGSGTDFTLTISSLQPEDVATYYCQNNNGGSTFTGFPFGQGTKVEIK
notes: CDRs grafted to a human IgG1 framework; recombinant; also called hC4
On to B5, for which the values for the Kd in assay [5] and in assay [6] were 0.0001 nM and 0.014 nM, respectively. Further, the binding result in assay [7] is listed as “binds”; in [8] it was “binds”; in assay [9], “no binding”; in assay [10], “no binding”; in assay [11] it was “binds”; in assay [12], “binds”.

B6: humanized C18 (antibody, human IgG1, V domains shown)
VH: EVQLVESGGGLVQPGGSLRLSCAASGFSFSSYWTCWVRQAPGKGLEWLGCTDGGSSGDTYYATWAKGRFTISRDNSKNTLYLQMNSLRAEDTAVYYCARNLITWDLWGQGTLVTVSS
VL: DIQMTQSPSSLSASVGDRVTITCQASESVYNNNQLSWYQQKPGKVPKLLIYWASKLASGVPSRFSGSGSGTDFTLTISSLQPEDVATYYCAGYKSSITDGNAFGQGTKVEIK
notes: CDRs grafted to a human IgG1 framework; recombinant; also called hC18
For B6, the Kd is 0.526 nM in [5] and 0.144 nM in assay [6]. In addition, the binding result in assay [7] and in [8] was “binds” each time.

B7: humanized C15 (antibody, human IgG1, V domains shown)
VH: EVQLVESGGGLVQPGGSLRLSCAASGFSFSSSYYMCWVRQAPGKGLEWIACIYTTYGGTWYASWAKGRFTISRDNSKNTLYLQMNSLRAEDTAVYYCARSSISDVTYFNLWGQGTLVTVSS
VL: DIQMTQSPSSLSASVGDRVTITCQASQSISNYLAWYQQKPGKVPKLLIYRASTLESGVPSRFSGSGSGTDFTLTISSLQPEDVATYYCQSYYDNNNYAFGQGTKVEIK
notes: CDRs grafted to a human IgG1 framework; recombinant; also called hC15
In the case of B7, the binding result in [7] and in assay [8] was “binds” throughout.
